Measurements from US20090214528A1 (published 2009).

Target: human tissue factor (human, UniProt P13726 33-295)
Test: cell-based or functional assay

ADCC potency relative to CNTO 860 derived from C463, second experiment, 51Cr-release on HCT 116 cells: ~10 fold
B1: CNTO 860 derived from the YB2/0 host cell line C1083B (antibody, human IgG1, kappa, V domains shown)
VH: QVQLVESGGGVVQPGRSLRLSCKASGFNIKDYYMHWVRQAPGKGLEWIGLIDPENGNTIYDPKFQGRFTISADNSKNTLFLQMDSLRPEDTAVYYCARDNSYYFDYWGQGTPVTVSS
VL: DIQMTQSPSSLSASVGDRVTITCKASQDIRKYLNWYQQKPGKAPKLLIYYATSLADGVPSRFSGSGSGTDYTFTISSLQPEDIATYYCLQHGESPYTFGQGTKLEITR
